± gives the uncertainty stated by the source.
Test: protein stability index of a GFP-peptide fusion (yeast GPS) (PSI 1-4); higher = more stable; sorted into four equal gates, so the index is relative within each strain
Method in brief: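 Sequencing reads from sorted gates were used to score each peptide. The library consisted of tiled 17-residue yeast protein peptides fused downstream of GFP on a Cherry-expressing plasmid, pooled and carried in yeast. Mid-log cultures in leucine-free medium were split into four equal gates by GFP/Cherry ratio, and each gate's plasmids were PCR-amplified and Illumina-sequenced. The protein stability index adds up, over all gates, the read frequency multiplied by the gate number.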

LDDNSTSLEKQINSIKK [YJL041W/NSP1]
protein stability index (doa10∆): 2.74 ± 0.078 | protein stability index (pdr5∆): 3.01 ± 0.058 | protein stability index (san1∆): 2.98 ± 0.038 | protein stability index (ubr1∆): 2.95 ± 0.045

LDEIFSGCDSTKPSLRK [ECM29]
protein stability index (doa10∆): 2.57 ± 0.078 | protein stability index (pdr5∆): 2.55 ± 0.06 | protein stability index (san1∆): 2.65 ± 0.065 | protein stability index (ubr1∆): 2.65 ± 0.038

LDELQWKSPEWIQVFGL [MED6]
protein stability index (doa10∆): 2.24 ± 0.078 | protein stability index (pdr5∆): 2.41 ± 0.053 | protein stability index (san1∆): 2.62 ± 0.071 | protein stability index (ubr1∆): 2.56 ± 0.066

LDEMELHPYNSRGLFEK [YDL116W/NUP84]
protein stability index (doa10∆): 3.23 ± 0.094 | protein stability index (pdr5∆): 3.04 ± 0.1 | protein stability index (san1∆): 2.86 ± 0.076 | protein stability index (ubr1∆): 3.22 ± 0.063

LDENKWYKFNDDKVSVV [UBP6]
protein stability index (doa10∆): 2.87 ± 0.12 | protein stability index (pdr5∆): 3.06 ± 0.091 | protein stability index (san1∆): 3.06 ± 0.1 | protein stability index (ubr1∆): 2.97 ± 0.081

LDEVDAALDLSHTQNIG [SMC2]
protein stability index (doa10∆): 3.07 ± 0.17 | protein stability index (pdr5∆): 3.21 ± 0.1 | protein stability index (san1∆): 3.02 ± 0.11 | protein stability index (ubr1∆): 3.12 ± 0.067

LDGKFSLFHTAVSVANG [RPN2]
protein stability index (doa10∆): 2.09 ± 0.056 | protein stability index (pdr5∆): 2.03 ± 0.057 | protein stability index (san1∆): 2.45 ± 0.077 | protein stability index (ubr1∆): 2.37 ± 0.06

LDKFTDGGLFTLFVRDQ [QCR2]
protein stability index (doa10∆): 2.98 ± 0.093 | protein stability index (pdr5∆): 3.14 ± 0.07 | protein stability index (san1∆): 3.19 ± 0.055 | protein stability index (ubr1∆): 3.31 ± 0.054

LDKVINKELPINHTILG [RPN8]
protein stability index (doa10∆): 2.19 ± 0.077 | protein stability index (pdr5∆): 2.27 ± 0.08 | protein stability index (san1∆): 1.67 ± 0.13 | protein stability index (ubr1∆): 2.4 ± 0.055

LDPINLPLDSQDDEYVK [PRP8]
protein stability index (doa10∆): 2.83 ± 0.075 | protein stability index (pdr5∆): 3.01 ± 0.066 | protein stability index (san1∆): 3.14 ± 0.093 | protein stability index (ubr1∆): 3.05 ± 0.045

LDPISLILIPGETMWVP [RPN13]
protein stability index (doa10∆): 2.28 ± 0.095 | protein stability index (pdr5∆): 2.45 ± 0.049 | protein stability index (san1∆): 2.95 ± 0.093 | protein stability index (ubr1∆): 3.4 ± 0.12

LDTYLPEDLNSLYIYYL [SIR2]
protein stability index (doa10∆): 2.8 ± 0.068 | protein stability index (pdr5∆): 2.45 ± 0.054 | protein stability index (san1∆): 2.54 ± 0.053 | protein stability index (ubr1∆): 2.63 ± 0.063

LEANGRSLEKVNNSVSK [SSN2]
protein stability index (doa10∆): 3.48 ± 0.15 | protein stability index (pdr5∆): 3.47 ± 0.12 | protein stability index (san1∆): 3.18 ± 0.11 | protein stability index (ubr1∆): 3.37 ± 0.1

LEASLNSITKDNIDYAP [YJL039C/NUP192]
protein stability index (doa10∆): 2.7 ± 0.05 | protein stability index (pdr5∆): 2.43 ± 0.041 | protein stability index (san1∆): 2.47 ± 0.039 | protein stability index (ubr1∆): 2.27 ± 0.026

LEATWNFIEPGINQILG [CDC53]
protein stability index (doa10∆): 2.95 ± 0.29 | protein stability index (pdr5∆): 2.75 ± 0.27 | protein stability index (san1∆): 3.38 ± 0.1 | protein stability index (ubr1∆): 3.08 ± 0.12

LEDIYTSAHEAIRADPA [RPL5]
protein stability index (doa10∆): 3.04 ± 0.066 | protein stability index (pdr5∆): 2.98 ± 0.082 | protein stability index (san1∆): 3.13 ± 0.072 | protein stability index (ubr1∆): 3.19 ± 0.051

LEDLVFPTEIVGKRVRY [RPS7A]
protein stability index (pdr5∆): 3.52 ± 0.28 | protein stability index (ubr1∆): 3.71 ± 0.25

LEEKKKRPNNKTLEKLE [IRR1]
protein stability index (doa10∆): 3.55 ± 0.14 | protein stability index (pdr5∆): 3.43 ± 0.1 | protein stability index (san1∆): 3.39 ± 0.092 | protein stability index (ubr1∆): 3.27 ± 0.13

LEESDVEDTLHVNKRKR [YOR098C/NUP1]
protein stability index (doa10∆): 3.26 ± 0.095 | protein stability index (pdr5∆): 2.89 ± 0.095 | protein stability index (san1∆): 3.12 ± 0.074 | protein stability index (ubr1∆): 2.91 ± 0.062

LEEVSLKWIDTASKFGK [RPL3]
protein stability index (doa10∆): 1.75 ± 0.097 | protein stability index (pdr5∆): 1.91 ± 0.092 | protein stability index (san1∆): 1.8 ± 0.12 | protein stability index (ubr1∆): 1.95 ± 0.089

LEFARITPMNDDQCMLI [SIN4]
protein stability index (doa10∆): 2.63 ± 0.074 | protein stability index (pdr5∆): 2.82 ± 0.089 | protein stability index (san1∆): 2.25 ± 0.051 | protein stability index (ubr1∆): 3.31 ± 0.067

LEHVLLVPTASFFIASQ [FAS1]
protein stability index (doa10∆): 1.25 ± 0.033 | protein stability index (pdr5∆): 1.46 ± 0.038 | protein stability index (san1∆): 1.45 ± 0.064 | protein stability index (ubr1∆): 1.31 ± 0.027

LEKFLQGRDTSKLPDPE [SRP72]
protein stability index (doa10∆): 2.76 ± 0.11 | protein stability index (pdr5∆): 2.2 ± 0.06 | protein stability index (san1∆): 2.38 ± 0.11 | protein stability index (ubr1∆): 2.77 ± 0.051

LENATWTMRIEGRLLDN [SNF12]
protein stability index (doa10∆): 2.64 ± 0.099 | protein stability index (pdr5∆): 2.89 ± 0.12 | protein stability index (san1∆): 2.65 ± 0.1 | protein stability index (ubr1∆): 2.92 ± 0.066

LENKADPLVSLMMVEKV [RPT6]
protein stability index (doa10∆): 2.12 ± 0.095 | protein stability index (pdr5∆): 2 ± 0.069 | protein stability index (san1∆): 2.35 ± 0.067 | protein stability index (ubr1∆): 2.2 ± 0.099

LEPGCSVLLHHKTMSIV [RPT2]
protein stability index (doa10∆): 1.39 ± 0.067 | protein stability index (pdr5∆): 1.58 ± 0.049 | protein stability index (san1∆): 1.38 ± 0.087 | protein stability index (ubr1∆): 1.61 ± 0.04
